This note sets out measurements from the supplement of paper PMC9170038.

The data set has as its system MS2 coat protein. Description: apparent KD of MS2 coat protein; designed switch direction (-1 OFF switch, 1 ON switch): -1; higher = weaker reporter binding. In outline: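 Apparent KD, taken as the median over clusters for each design, was obtained by curve-fitting normalised cluster fluorescence. Designed RNA switches had been transcribed on Illumina chips by stalled E. coli RNA polymerase and titrated with SNAP-549-labelled MS2 coat protein, doubling from 0.7 or 1.5 nM to 3 µM.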

[1] abbreviates: Eterna round: R95, input ligand: FMN 200 uM.
Setting [2] is: Eterna round: R95, input ligand: microRNA oligo, concentration not stated.
[3] abbreviates: Eterna round: R95, input ligand: none.
Where [4] appears, read: input ligand: microRNA oligo, concentration not stated.

Regarding “UAUUAGCAAGCGAGAUCCCACAUGAGGAUCACCCAUGUAAUAAAAGCAUCCAGAAUUACUGGGUGCGCUCGUCUUAU [Winner reversed engineered 14] (Eterna round: R97, puzzle: Sensor, turn-off variant 1)”, the “apparent KD of MS2 coat protein” value came to 47.7 nM (input ligand: FMN 200 uM) and 49.5 nM (input ligand: none).
In the case of “CUCGGGAGUCAGGAUAUCGGCACUUAUCAAUCACGAGAAGGGACGACAUGAGGAUCACCCAUGUGGGAAAAGAA [Ersoar] (puzzle: Exclusion 6)”, the “apparent KD of MS2 coat protein” value reads like this: under setting [1], 252 nM; under setting [2], 89.4 nM; under setting [3], 84.7 nM.
“CUUCGUUGCAAGGAUAUGUGAACGAAGAGGGAUACAGAAGGUGCUACAUGAGGAUCACCCAUGUGGGUUGAUUU [Eternabot (L1) Solution 48] (Eterna round: R97, puzzle: Exclusion 6)”: the “apparent KD of MS2 coat protein” value (input ligand: FMN 200 uM) came out at 363 nM and the “apparent KD of MS2 coat protein” value (input ligand: none) amounted to 226 nM.
As to “UUUUAACAUGAGGAUCACCCAUGUGAGGAUAUCGAAAUUUAUAUUAAUAUUAUUAAAACGAGAAGGCACAUUUU [JMF 35] (puzzle: Exclusion 1)”, under setting [2], the “apparent KD of MS2 coat protein” value was determined as 62.9 nM.
As for “GGUUGGCGAGGAUAUACAUGAGGAUCACCCAUGUGAGAGAAAAAAGUGAGGAAGAAAAGUAGAAGGCGCUGACA [salish99_ex3_r3_046] (puzzle: Exclusion 3)”, the “apparent KD of MS2 coat protein” value is, setting by setting: under setting [1], 188 nM; under setting [2], 43.9 nM; under setting [3], 54.1 nM.
As for “GAGAAGGUAGGAUAUACGAAUAAAUAGGGUAGGAAGAAGACACAUGAGGAUCACCCAUGUAGAAGGACCAAGAU [Mat - Exclusion 2 - Mod of my Tesla design - D35] (puzzle: Exclusion 2)”, the “apparent KD of MS2 coat protein” value under setting [2] turned out to be 18.1 nM.
For the sequence “AAAUACAAGUAAAGAUCUUACAUGAGGAUCACCCAUGUGCUCGUCUUAUAAAGUACUAUCACGAAAGUGAUAGUACA [Sensor 3, v1 - 25] (puzzle: Sensor v3, turn-off variant 1)”, the “apparent KD of MS2 coat protein” value by setting is: under setting [1], 15.9 nM; under setting [2], 159 nM; under setting [3], 18.4 nM.
For the sequence “UUUUACGCAGGAUAUACAUUUUUUUUAUUAUCCUCAUUAUUACAUGAGGAUCACCCAUGUAGAAGGGCGAUUUU [My Design] (puzzle: Exclusion 2)”, under setting [2], the “apparent KD of MS2 coat protein” value turned out to be 38.8 nM.
Regarding “AGAGCCGUUGUAGGAUAUGCCCUCGGGUGAUGCCGGUCGCCACAUGAGGAUCACCCAUGUAGCGGGCAGAAGGGCAAACUCAGU [Eternabot solution 43] (Eterna round: R96, puzzle: Exclusion NG 2)”, the “apparent KD of MS2 coat protein” value came to 26.6 nM (input ligand: FMN 200 uM), 13.4 nM under setting [4] and 18.5 nM (input ligand: none).
In the case of “GAGAAAGCAAGCAAGUGAAACAUGAGGAUCACCCAUGUCCUCAUUUGCUCGUCUUAUAAAAGCUAUCGAAAGAUAGC [Mat - Sensor v3 - turn-off var 1 - Eli Mod - D48] (puzzle: Sensor v3, turn-off variant 1)”, the “apparent KD of MS2 coat protein” value is, setting by setting: under setting [1], 13.2 nM; under setting [2], 139 nM; under setting [3], 10.3 nM.
For the sequence “UAUCUACAUGUAGGAUAUGCGUGGCGAAGCUAUGCAGAAGGACAUGAGGAUCACCCAUGUUUUAGCGUCUGCGUACAGAUGCGU [JL ENG1 1.48] (Eterna round: R96, puzzle: Exclusion NG 1)”, the “apparent KD of MS2 coat protein” value amounted to 149 nM (input ligand: FMN 200 uM), 16.4 nM under setting [4] and 23.2 nM (input ligand: none).
Regarding “AAAUUGGUAGAGGAUAUUGUACAGGAAACGGUGCGAGAAGGUUGCACAUGAGGAUCACCCAUGUUUAGUUGCGA [EX6 #47] (Eterna round: R97, puzzle: Exclusion 6)”, the “apparent KD of MS2 coat protein” value runs as follows: (input ligand: FMN 200 uM) 27.2 nM; (input ligand: none) 32.4 nM.
Take “AUGCUCCGUGUAGGAUAUCGCCGUACUAUUCGGCGAGAAGGACAUGAGGAUCACCCAUGUAUGUUAUUAUCACGUGUGGCGCGC [Design 48] (Eterna round: R96, puzzle: Exclusion NG 1)”: the “apparent KD of MS2 coat protein” value was found to be 57 nM (input ligand: FMN 200 uM), 14.5 nM under setting [4] and 18.9 nM (input ligand: none).
On to “CCGAAUAAGCAGGAUAUCGUUUCGGAAACGAAACGAGAAGGGCUAACAUGAGGAUCACCCAUGUUCCUUAACGG [Mat - Exclusion 6 - Eli Mod - D77] (puzzle: Exclusion 6)”, for which the “apparent KD of MS2 coat protein” value runs as follows: under setting [1], 23.9 nM; under setting [2], 18.3 nM; under setting [3], 18 nM.
For the sequence “GAAAAGCAUGUGAGGAUAUGCACACCGGACCGGUGGUAGAAGGCACAUGAGGAUCACCCAUGUGACCAAGAAUA [BmEX4 A.4] (Eterna round: R97, puzzle: Brourd's mod of Exclusion 4)”, the “apparent KD of MS2 coat protein” value reads like this: (input ligand: FMN 200 uM) 19.7 nM; (input ligand: none) 10.6 nM.
“AAGGGUACUUUCAGAACGACAUGAGGAUCACCCAUGUAGACUGAGGAUAUCUGCUACUAAGGACGGGAGAAGGCAGUGUAAUGU [Ex NG3 #74] (Eterna round: R96, puzzle: Exclusion NG 3)”: the “apparent KD of MS2 coat protein” value worked out at 10.6 nM (input ligand: FMN 200 uM), 11.1 nM under setting [4] and 14.2 nM (input ligand: none).
Turning to “CCCGUGUUAGGAUAUACGGCACACCCACCAGCGGGUGUAUAGUAGAAGGAACAUGAGGAUCACCCAUGUAUAAC [Inardiza] (puzzle: Exclusion 4)”, the “apparent KD of MS2 coat protein” value under setting [2] turned out to be 32.4 nM.
For “GUGAUCUAUCAUGUAAUAAACAUGAGGAUCACCCAUGUAGACAAGUUUUUUGCUCGUCUUAUAAUAAGAUAGAUCAC [Antenna 15 - Jieux - Sensor, turn-off variant 1] (Eterna round: R97, puzzle: Sensor, turn-off variant 1)”, the “apparent KD of MS2 coat protein” value (input ligand: FMN 200 uM) was 16.3 nM and the “apparent KD of MS2 coat protein” value (input ligand: none) turned out to be 15.9 nM.
For “CGGAAAUCCUAGGAUAUGCUAGACGAAAGUCUAGCAGAAGGAGGAACAUGAGGAUCACCCAUGUGUCCUAUCCG [Mat - Exclusion 6 - Eli Mod - D16] (Eterna round: R97, puzzle: Exclusion 6)”, in that order: 26 nM and 17.1 nM.
Take “CUUUUGUGAGGAUAUCAGUAGUAAUACAAUAGUAUUACUACUGAGAAGGUACAUGAGGAUCACCCAUGUUCCUC [Ex4 344 Omei mod 4] (puzzle: Exclusion 4)”: the “apparent KD of MS2 coat protein” value under setting [2] is 17.9 nM.
As for “ACAUGUAUUGCAGGAUAUGGGACACAUGAGGAUCACCCAUGUGACUACAUGUCAUACCACGGGUCUCAGAAGGGUAUGUACAUG [Ex NG2 #40] (Eterna round: R96, puzzle: Exclusion NG 2)”, the “apparent KD of MS2 coat protein” value reads like this: (input ligand: FMN 200 uM) 28.9 nM; under setting [4], 15.1 nM; (input ligand: none) 23 nM.
In the case of “GCUAGGAAUGUCAGGAUAUGCAGAUCCUUGGAUCUGCAGAAGGGACAUGAGGAUCACCCAUGUGCUAACCUAGC [Mat - Exclusion 4 - JL Mod - D7] (Eterna round: R97, puzzle: Brourd's mod of Exclusion 4)”, the “apparent KD of MS2 coat protein” value was found to be 110 nM (input ligand: FMN 200 uM) and 24.3 nM (input ligand: none).
“AUUAUAUAGCAAGGAUAUAGAAUAUUAUUUUAACAUGAGGAUCACCCAUGUAACCUUAUGUGUAGCUAGAAGGUGCAUUUAUUA [Title] (Eterna round: R96, puzzle: Exclusion NG 2)”: the “apparent KD of MS2 coat protein” value under setting [4] stood at 64.1 nM.
As to “GGCACACAUGAGGAUCACCCAUGUGAGGAUAUGUGGCGAUCGUCGAAAGACGAUAGCCAUAGAAGGCACAUGCC [Eli x1 4.08] (Eterna round: R97, puzzle: Exclusion 1)”, the “apparent KD of MS2 coat protein” value reads like this: (input ligand: FMN 200 uM) 32.1 nM; (input ligand: none) 18.1 nM.
In the case of “CCCAGUUAGUCAGGAUAUCUUACAUGAGGAUCACCCAUGUAAUAAAUGAGGAUUUCGGGUGUCUAAGAGAAGGGACGGAUAGGC [Ostracism 27 - Jieux - Exclusion NG 2] (Eterna round: R96, puzzle: Exclusion NG 2)”, the “apparent KD of MS2 coat protein” value runs as follows: (input ligand: FMN 200 uM) 22.3 nM; under setting [4], 9.5 nM; (input ligand: none) 19.4 nM.
“GUCCUGGUAGGAUAUGAGGUUCACGACAUGAGGAUCACCCAUGUGGCCGUGUCUCAUACUUCAGAAGGACCGACAG [Eternabot (L2) Solution 5] (Eterna round: R97, puzzle: Exclusion 5)”: the “apparent KD of MS2 coat protein” value (input ligand: FMN 200 uM) was found to be 16.1 nM and the “apparent KD of MS2 coat protein” value (input ligand: none) was found to be 15.7 nM.
For “CCACUGUCAGGAUAUCGUGCAUAAGCGUUUACACUUAUGUGCGAGAAGGGACAUGAGGAUCACCCAUGUAAACG [Omei Ex4 A28PK7] (Eterna round: R97, puzzle: Exclusion 4)”, in that order: 628 nM and 391 nM.
Take “AGAUGUAGAUACCGAUCCUACAUGAGGAUCACCCAUGUAGCUAGACGUGCGGGCGGCGCUCGUCAGACUACCAGUAG [salish99_TOv1_r3_094] (puzzle: Sensor v3, turn-off variant 1)”: the “apparent KD of MS2 coat protein” value amounted to 271 nM under setting [1], 214 nM under setting [2] and 371 nM under setting [3].
As to “AAAAUACAAGCAAGAUCCUACAUGAGGAUCACCCAUGUGCUCGUCUUAUAAAGUACUAUCACGAAAGUGAUAGUACA [Mat - Sensor v3 - turn-off var 1 - Eli Mod - D59] (puzzle: Sensor v3, turn-off variant 1)”, the “apparent KD of MS2 coat protein” value under setting [1] turned out to be 256 nM, the “apparent KD of MS2 coat protein” value under setting [2] was 43.1 nM and the “apparent KD of MS2 coat protein” value under setting [3] was determined as 415 nM.
In the case of “GGAUGAGAGCAGGAUAUCUUAUAAAUGUAUGAAAGAGAAGGGCUCACAUGAGGAUCACCCAUGUGGUCCUAGAU [jl-ex6-4.73 jandersonlee mod] (Eterna round: R97, puzzle: Exclusion 6)”, the “apparent KD of MS2 coat protein” value is 280 nM (input ligand: FMN 200 uM) and 35.9 nM (input ligand: none).
